A short description of series [1]: Pharmacokinetics of Fc-Nep and commercial neprilysin, single i.v. dose (Example 20). It is filed as in vivo. The settings on record: mice, single i.v. dose 1 mg/kg. As to the method:
The Fc-Nep fusion protein was developed to improve the pharmacokinetic entities of neprilysin with the specific aims to reduce clearance and improve half-life. To test this we have administrated a single i.v. dose of either 1 mg/kg commercial neprilysin or 1 alternatively 5 mg/kg in-house produced Fc-Nep to mice. At set times after dosing blood samples were drawn from the tail vein or by heart puncture at termination. Upon sampling into tubes containing EDTA the aliquots were put on ice. Plasma was prepared by centrifugation within 15 minutes of sampling (typically 1500 g at 4° C. for 10 min) and immediately frozen. Plasma concentrations of Fc-Nep and neprilysin were determined via immunoassays using either anti-Nep for commercial neprilysin or anti-human IgG for Fc-Nep as capture antibodies while both substances were detected via an anti-Nep antibody. Pharmacokinetic parameters are calculated using a software package (WinNonlin, Pharsight Corporation, USA) and in this example experiment the calculated half-life had increased from about 5 minutes for Nep to about 20 hours for Fc-Nep.

Series [2] concerns amyloid β peptide 1-40 (Aβ40). The series can be described thus: Ex-vivo degradation of Aβ40 in guinea pig plasma. It is filed as biochemical. Particulars: 5 μg/ml, 4 hours, 37° C. As to the method:
Degradation of amyloid β peptide 1-40 (Aβ40) and amyloid β peptide 1-42 (Aβ42) by neprilysin was investigated using heparinized plasma from male Dunkin Hartley guinea pigs, weighing 250-300 g (HBLidkoping ka). Blood was withdrawn from anaesthetized guinea pigs by heart puncture. The blood were collected into prechilled heparin-plasma tubes and centrifuged for 10 min at 4° C. at 3000×g within 20 minutes of sampling. Plasma samples were transferred to pre-chilled polypropylene tubes and immediately frozen on dry ice and stored at −70° C. prior to use. The experiments were performed on a pool of plasma from seven guinea pigs. His-Fc-Nep (6 μg/ml or 208 μg/ml) or 5 μg/ml recombinant human Neprilysin (R&D systems) with corresponding vehicles (50 mM Tris-HCl, 150 mM NaCl pH 7.5 or 25 mM Tris-HCl, 0.1 M NaCl pH 8.0) were incubated with a pool of plasma in presence or absence of 10 μM phosphoramidon (BIOMOL) at 37° C. for 0 and 4 h. A final concentration of 4.7 mM EDTA was added into the tubes before the amount of Aβ40 and Aβ42 was analysed using a commercial ELISA kit obtained from Biosource (Aβ1-40) or Innogenetics (Aβ1-42).

In series [3] the test system is amyloid β peptide 1-40 (Aβ40). The series is described as follows: Degradation of Aβ40 in human plasma (Example 18). The series is classed as biochemical. Particulars: 5 μg/ml, 4 hours, 37° C. As to the method: Blood from eight individuals (5 females and 3 males) were collected into pre-chilled heparin-plasma tubes at the healthcare centre (AstraZeneca) at two different time points. Plasma was prepared by centrifugation for 20 min at 4° C. at 2500×g within 30 minutes of sampling. Plasma samples were transferred to pre-chilled polypropylene tubes and immediately frozen and stored at −70° C. prior to use. His-Fc-Nep (6 μg/ml) or 5 μg/ml recombinant human Neprilysin (R&D systems) with corresponding vehicles (50 mM Tris-HCl, 150 mM NaCl pH 7.5 or 25 mM Tris-HCl, 0.1 M NaCl pH 8.0) in presence or absence of 10 μM phosphoramidon was incubated with a pool of plasma at 37° C. for 0 and 4 h. A final concentration of 4.7 mM EDTA was added into the tubes before the amount of Aβ40 was analysed using a commercial ELISA kit obtained from Biosource. His-Fc-Nep (6 μg/ml) and commercial human recombinant neprilysin (5 μg/ml) degraded Aβ40 with 33% and 70%, respectively, compared to vehicle after 4 hours incubation at 37° C. The Aβ40 levels were unaffected after addition of 10 μM phosphoramidon (FIG. 4).

The test system of series [4] is amyloid β 1-40 peptide. The series is described as follows: Degradation of amyloid β 1-40 peptide by Fc-Neprilysin and Neprilysin in buffer. It is filed as biochemical. The settings on record: enzyme 2.4 μg/ml, Aβ 1-40 300 nM, 2.5 hours at 37° C., buffer. As to the method: The assay is measuring the remaining amyloid β 1-40 peptide (Bachem) concentration following its incubation in the presence of Neprilysin (R&D Systems) or Fc-Neprilysin with or without Neprilysin inhibitor. 100 μl of reaction mixture containing amyloid β 1-40 peptide (final concentrations, 300, 30 or 3 nM) and/or Neprilysin (2.4 μg/ml), and/or Fc-Neprilysin construct (2.4 μg/ml), and/or Phosphoramidone (10 μM) was incubated in a round bottom 96-well polypropylene plate at 37° C. for 2.5 hours. Following incubation, 10 μl of reaction mixture was transferred into Thermo-Fast© 96-well PCR plate (Abgene, UK) containing 10 μl of Standard Diluent (Gyros AB). Amyloid β 1-40 concentration was determined using Gyrolab Workstation LIF system. Biotinylated anti-amyloid β antibodies (6E10; final concentration 50 μg/ml; Signet) were used as capturing antibodies and polyclonal anti-human amyloid β antibodies (44-348; Biosource) labeled with Alexa Fluor 647 dye (Molecular probes) were used as detection antibodies. Amyloid β 1-40 peptide concentration measurement performed according to the manufacturers protocol using Gyrolab Bioaffy™ Software Package Version 1.8 (Gyros AB). Amyloid β 1-40 peptide degradation by Neprilysin was calculated as a percentage of Amyloid β 1-40 peptide left after incubation in the presence of Neprilysin compared to the amyloid β 1-40 peptide concentration in the absence of Neprilysin.

Series [5] in a line: Pharmacokinetics of Fc-Nep and in-house produced Neprilysin, single i.v. dose (Example 27). The series is classed as in vivo. Particulars: mice, single i.v. dose 10 or 50 nmol enzyme/kg. As to the method: The Fc-Nep fusion protein was developed to improve the pharmacokinetic entities of neprilysin with the specific aims to reduce clearance and improve half-life. To test this we have administrated a single i.v. dose of 10 or 50 nmol enzyme/kg body weight neprilysin (Nep) or Fc-Nep (1 and 5 mg/kg) to mice. At set times the dose blood samples were drawn from the tail vein or by heart puncture at termination. Upon sampling into tubes containing EDTA the aliquots were put on ice. Plasma was prepared by centrifugation within 15 minutes of sampling (typically 1500 g at 4° C. for 10 min) and immediately frozen. Plasma concentrations of Nep and Fc-Nep were determined via immunoassays using either anti-Nep for Nep or anti-human IgG for Fc-Nep as capture antibodies while both substances were detected via an anti-Nep antibody. Pharmacokinetic parameters are calculated using a software package (WinNonlin, Pharsight Corporation, USA) and in this example experiment the calculated half-life had increased from about 1 day for Nep to about 2.5 weeks for Fc-Nep.

B1: Recombinant human Neprilysin: commercially available Recombinant Human Neprilysin (R&D Systems), positive control (protein)
chain: YDDGICKSSDCIKSAARLIQNMDATTEPCTDFFKYACGGWLKRNVIPETSSRYGNFDILRDELEVVLKDVLQEPKTEDIVAVQKAKALYRSCINESAIDSRGGEPLLKLLPDIYGWPVATENWEQKYGASWTAEKAIAQLNSKYGKKVLINLFVGTDDKNSVNHVIHIDQPRLGLPSRDYYECTGIYKEACTAYVDFMISVARLIRQEERLPIDENQLALEMNKVMELEKEIANATAKPEDRNDPMLLYNKMTLAQIQNNFSLEINGKPFSWLNFTNEIMSTVNISITNEEDVVVYAPEYLTKLKPILTKYSARDLQNLMSWRFIMDLVSSLSRTYKESRNAFRKALYGTTSETATWRRCANYVNGNMENAVGRLYVEAAFAGESKHVVEDLIAQIREVFIQTLDDLTWMDAETKKRAEEKALAIKERIGYPDDIVSNDNKLNNEYLELNYKEDEYFENIIQNLKFSQSKQLKKLREKVDKDEWISGAAVVNAFYSSGRNQIVFPAGILQPPFFSAQQSNSLNYGGIGMVIGHEITHGFDDNGRNFNKDGDLVDWWTQQSASNFKEQSQCMVYQYGNFSWDLAGGQHLNGINTLGENIADNGGLGQAYRAYQNYIKKNGEEKLLPGLDLNHKQLFFLNFAQVWCGTYRPEYAVNSIKTDVHSPGNFRIIGTLQNSAEFSEAFHCRKNSYMNPEKKCRVW
Turning to B1, the calculated half-life result in series [1] is on record as “about 5 minutes”. For the same molecule, the “Aβ40 degraded compared to vehicle” value in series [2] worked out at 49%; in series [3], 70%. Further, the “Amyloid β 1-40 peptide degraded” value in series [4] amounted to 64%.

B2: Nep: in-house produced Neprilysin (extra-cellular domain only), without Fc (protein, UniProt P08473 52-750, looked up)
extracellular domain: B1 chain
modifications: extracellular domain
notes: in-house produced Neprilysin (extra-cellular domain only), without Fc
On to B2, for which, in series [5], the calculated half-life entry is reported as “about 1 day”.

The values are drawn from US20080242590A1, “New Method 706” (ASTRAZENECA AB, priority 2007, published 2008).
